In assay [1] the target is HLA-B*15:01. As to the kind of experiment: IEDB peptide-MHC binding, purified MHC/competitive/fluorescence; filed as Kd, often an IC50 or EC50 that approximates it; ≥ and ≤ were set here for values at or beyond the usual limits of such assays.
In assay [2] the target is HLA-A*02:01. The description is as above.
Assay [3] has as its target HLA-B*08:01. The description is as above.
The target of another assay is HLA-A*02:12. Briefly: IEDB peptide-MHC binding, purified MHC/direct/fluorescence; filed as Kd, often an IC50 or EC50 that approximates it; ≥ and ≤ were set here for values at or beyond the usual limits of such assays. As to conditions: source organism: Orthohantavirus tulaense.
For assay [4], the target named is HLA-A*03:01. The description is as above.
The next assay addresses HLA-A*02:19. The assay is described as above. The following applies: source organism: Orthohantavirus tulaense.
Assay [5] deals with HLA-B*15:01. The description is as above.
A further assay has as its target HLA-A*02:03. Described as above. The following applies: source organism: Orthohantavirus tulaense.
For another assay, the target named is HLA-A*02:11. The assay is described as above. The following applies: source organism: Orthohantavirus tulaense.
Another assay has as its target HLA-A*02:16. The assay is described as above. As to conditions: source organism: Orthohantavirus tulaense.
A further assay deals with HLA-A*68:02. The description is as above. As to conditions: source organism: Orthohantavirus tulaense.
In another assay the target is HLA-B*46:01. Briefly: IEDB peptide-MHC binding, purified MHC/competitive/fluorescence; filed as Kd, often an IC50 or EC50 that approximates it; ≥ and ≤ were set here for values at or beyond the usual limits of such assays.
In assay [6] the target is HLA-B*58:01. The description is as above.
Assay [7] addresses HLA-A*26:01. The assay is described as above. As to conditions: source organism: Orthohantavirus tulaense.
The target of the next assay is HLA-B*27:03. The assay is described as above. The following applies: source organism: Orthohantavirus tulaense.
Another assay has as its target HLA-B*57:01. The description is as above. As to conditions: source organism: Orthohantavirus tulaense.
Assay [8] has as its target HLA-A*69:01. The assay is described as above. The following applies: source organism: Orthohantavirus tulaense.
The target of another assay is HLA-B*35:01. The assay is described as above.
For assay [9], the target named is HLA-A*01:01. Briefly: IEDB peptide-MHC binding, purified MHC/direct/fluorescence; filed as Kd, often an IC50 or EC50 that approximates it; ≥ and ≤ were set here for values at or beyond the usual limits of such assays.
The target in assay [10] is HLA-A*31:01. The description is as above.
Assay [11] has as its target HLA-B*58:01. The assay is described as above.
Assay [12] deals with HLA-A*26:01. The assay is described as above.
For a further assay, the target named is HLA-B*27:05. The assay is described as above.
Another assay deals with HLA-A*24:03. The assay is described as above.
In another assay the target is HLA-A*30:01. The description is as above.
The target of assay [13] is HLA-A*02:01. Described as above.
Assay [14] addresses HLA-B*08:01. The description is as above.
The target of a further assay is HLA-B*07:02. The assay is described as above.
Assay [15] deals with HLA-A*69:01. The assay is described as above.
A further assay addresses HLA-B*40:01. The assay is described as above.
For another assay, the target named is HLA-A*11:01. The assay is described as above.
Assay [16] addresses HLA-A*01:01. As to the kind of experiment: IEDB peptide-MHC binding, purified MHC/competitive/fluorescence; filed as Kd, often an IC50 or EC50 that approximates it; ≥ and ≤ were set here for values at or beyond the usual limits of such assays. The following applies: source organism: Salmonella enterica subsp. enterica serovar Typhi.
The target of assay [17] is HLA-A*03:01. Described as above.
For another assay, the target named is HLA-B*44:02. Briefly: IEDB peptide-MHC binding, purified MHC/direct/fluorescence; filed as Kd, often an IC50 or EC50 that approximates it; ≥ and ≤ were set here for values at or beyond the usual limits of such assays.
In assay [18] the target is HLA-A*31:01. Briefly: IEDB peptide-MHC binding, purified MHC/competitive/fluorescence; filed as Kd, often an IC50 or EC50 that approximates it; ≥ and ≤ were set here for values at or beyond the usual limits of such assays. The following applies: source organism: Yersinia pestis Nepal516.
Setting [19] is: source organism: Escherichia coli 536.
Where [20] appears, read: source organism: Orthohantavirus tulaense.
The mark [21] stands for this setting: source organism: Pseudomonas aeruginosa UCBPP-PA14.
Setting [22] is: source organism: Pseudomonas aeruginosa.
[23] abbreviates: source organism: Salmonella enterica subsp. enterica serovar Typhi.
Setting [24] is: source organism: Mycobacterium tuberculosis F11.
Where [25] appears, read: source organism: Giardia lamblia ATCC 50803.
[26] abbreviates: source organism: Yersinia pestis Nepal516.
Where [27] appears, read: source organism: Escherichia coli.
Where [28] appears, read: source organism: Campylobacter jejuni.

For eleven sequences, Kd results are on record in the Immune Epitope Database (IEDB).

A value given as a limit tells only on which side of the number the result lay.

On to WLLLRQLPI, for which the values for the dissociation constant Kd with HLA-B*15:01 [1] (setting [19]), in the assay with HLA-A*02:01 [2] (setting [19]) and with HLA-B*08:01 [3] (setting [19]) were no less than 20 µM, 0.0146 µM and 0.0452 µM, respectively.
On to FGAAVSLLF, for which the Kd was no less than 20 µM in the assay with HLA-A*02:12; no less than 20 µM with HLA-A*03:01 [4] (setting [20]); no less than 20 µM in the assay with HLA-A*02:19; 0.0536 µM in the assay with HLA-B*15:01 [5] (source organism: Orthohantavirus andesense); no less than 20 µM in the assay with HLA-A*02:03; no less than 20 µM in the assay with HLA-A*02:11. Besides, the Kd is no less than 20 µM in the assay with HLA-A*02:16; no less than 20 µM with HLA-A*68:02; no less than 20 µM with HLA-B*46:01 (setting [20]); 0.0013 µM with HLA-B*58:01 [6] (setting [20]); no less than 20 µM in the assay with HLA-A*26:01 [7]; no less than 20 µM in the assay with HLA-B*27:03. In addition, the Kd in the assay with HLA-A*02:01 [2] (setting [20]) was no less than 20 µM; in the assay with HLA-B*57:01, no less than 20 µM; with HLA-A*69:01 [8], no less than 20 µM; with HLA-B*35:01 (setting [20]), 0.0027 µM.
RDYRTISPR: the Kd with HLA-A*01:01 [9] (setting [21]) is no less than 20 µM; in the assay with HLA-A*31:01 [10] (setting [22]) it was 0.046 µM; with HLA-B*58:01 [11] (setting [21]) it was no less than 20 µM; with HLA-A*03:01 [4] (setting [22]), 3.44 µM; with HLA-A*26:01 [12] (setting [21]), no less than 20 µM; with HLA-B*15:01 [5] (setting [21]), no less than 20 µM. Moreover, the Kd was no less than 20 µM with HLA-B*27:05 (setting [21]); no less than 20 µM with HLA-A*24:03 (setting [21]); 2.01 µM in the assay with HLA-A*30:01 (setting [22]); no less than 20 µM with HLA-A*02:01 [13] (setting [21]); no less than 20 µM in the assay with HLA-B*08:01 [14] (setting [21]); no less than 20 µM with HLA-B*07:02 (setting [21]). Besides, the dissociation constant Kd with HLA-A*69:01 [15] (setting [21]) was no less than 20 µM; with HLA-B*40:01 (setting [21]), no less than 20 µM; with HLA-A*11:01 (setting [22]), 8.65 µM.
Turning to GPGEVSAAM, the Kd with HLA-B*07:02 (source organism: Mycobacterium tuberculosis str. Haarlem) stood at 0.146 µM; with HLA-B*35:01 (source organism: Mycobacterium tuberculosis variant bovis BCG str. Pasteur 1173P2) it was 0.0039 µM.
Turning to MTAAQIRRY, the Kd was 0.243 µM with HLA-A*01:01 [16], no less than 20 µM in the assay with HLA-B*58:01 [6] (setting [23]), 3.5 µM with HLA-A*03:01 [17] (setting [23]) and 0.168 µM with HLA-B*15:01 [1] (setting [23]).
FSIPVTFSY: the Kd in the assay with HLA-A*01:01 [9] (source organism: Mycobacterium tuberculosis) is 0.316 µM; with HLA-B*46:01 (setting [24]), 0.0686 µM; in the assay with HLA-B*58:01 [6] (setting [24]), 0.0007 µM; with HLA-B*35:01 (setting [24]), no more than 0.0001 µM.
In the case of VYAYPSGEK, the Kd with HLA-B*44:02 (setting [25]) is no less than 20 µM; with HLA-A*01:01 [9] (setting [25]), no less than 20 µM; with HLA-B*58:01 [11] (setting [25]), no less than 20 µM; with HLA-A*03:01 [4] (setting [25]), 3.37 µM; in the assay with HLA-A*26:01 [12] (setting [25]), no less than 20 µM; with HLA-B*15:01 [5] (setting [25]) it was no less than 20 µM. The Kd in the assay with HLA-B*27:05 (setting [25]) was no less than 20 µM; with HLA-A*24:03 (setting [25]), no less than 20 µM; with HLA-A*30:01 (setting [25]), 4.7 µM; in the assay with HLA-A*02:01 [13] (setting [25]), no less than 20 µM; in the assay with HLA-B*08:01 [14] (setting [25]), no less than 20 µM; with HLA-B*07:02 (setting [25]), no less than 20 µM. Besides, the Kd with HLA-A*69:01 [15] (setting [25]) is no less than 20 µM; in the assay with HLA-B*40:01 (setting [25]) it was no less than 20 µM; in the assay with HLA-A*11:01 (setting [25]), 7.74 µM.
As for FIRLRFAFK, the Kd with HLA-A*31:01 [18] was 0.0173 µM; in the assay with HLA-A*03:01 [17] (setting [26]), no less than 20 µM; in the assay with HLA-B*08:01 [3] (setting [26]), no less than 20 µM.
In the case of WCRVGRGTI, the Kd in the assay with HLA-A*01:01 [9] (setting [27]), with HLA-A*31:01 [10] (setting [27]), with HLA-B*58:01 [11] (setting [27]), in the assay with HLA-A*03:01 [4] (setting [27]), with HLA-A*26:01 [12] (setting [27]) and with HLA-B*15:01 [5] (setting [27]) was no less than 20 µM in each case. The Kd is no less than 20 µM with HLA-B*27:05 (setting [27]); 13.8 µM in the assay with HLA-A*24:03 (setting [27]); no less than 20 µM with HLA-A*30:01 (setting [27]); no less than 20 µM in the assay with HLA-A*02:01 [13] (setting [27]); no less than 20 µM in the assay with HLA-B*08:01 [14] (setting [27]); 4.68 µM with HLA-B*07:02 (setting [27]). Further, the Kd in the assay with HLA-A*69:01 [15] (setting [27]) is no less than 20 µM; with HLA-B*40:01 (setting [27]) it was no less than 20 µM; with HLA-A*11:01 (setting [27]), no less than 20 µM; with HLA-B*35:01 (source organism: Escherichia coli str. K-12 substr. MG1655), no less than 5 µM.
HPKRTERAG came in with a Kd with HLA-B*08:01 [3] (source organism: Escherichia coli O139:H28 str. E24377A) of no less than 20 µM.
With VKKLWGHLP, the Kd with HLA-B*44:02 (setting [28]), with HLA-A*01:01 [9] (setting [28]), in the assay with HLA-A*31:01 [10] (setting [28]), with HLA-B*58:01 [11] (setting [28]), in the assay with HLA-A*03:01 [4] (setting [28]) and in the assay with HLA-A*26:01 [12] (setting [28]) was no less than 20 µM throughout. Further, the Kd in the assay with HLA-B*15:01 [5] (setting [28]), with HLA-B*27:05 (setting [28]), with HLA-A*24:03 (setting [28]), in the assay with HLA-A*30:01 (setting [28]), with HLA-A*02:01 [13] (setting [28]) and with HLA-A*69:01 [15] (setting [28]) was no less than 20 µM each time. Further, the Kd with HLA-B*40:01 (setting [28]) and with HLA-A*11:01 (setting [28]) was no less than 20 µM each time.
